According to patent publication US20250368742A1:

Legend:
Test in all cases: capture ELISA (anti-hFc / antibody / shed antigen / biotin-6D4)
[1] = target: shed MICA008 polypeptide (human) (UniProt Q29983)
[2] = target: shed MICA002 polypeptide (human) (UniProt Q29983)
[3] = target: shed MICA004 polypeptide (human) (UniProt Q29983)
[4] = target: shed MICB005 polypeptide (human) (UniProt Q29980)

Binder | EC50 [1] [µg/mL] | Max OD450 [1] | EC50 [2] [µg/mL] | Max OD450 [2] | EC50 [3] [µg/mL] | Max OD450 [3] | EC50 [4] [µg/mL] | Max OD450 [4]
#31 (antibody, V domains shown) VH: EVQLQQSGPELVKPGASVKVSCKASGYAFTKYNIYWVKQSHGKSLEWIGYIDPYNGGTVQNQKFKGKATLTVDKSSSTAYMHLNSLTSEDSAVYYCATTDGYSLFTYWGQGTLVTVSS VL: DIQMTQTTSSLSASLGDRVTISCRASQDIGNYLNWYQQKPDGTVKLLIYYTSRLHSGVPSRFSGSGSGTDYSLTISNLEQEDIATYFCQQGNTLPFTFGSGTKLEIK | 0.26 | 0.19 | 0.13 | 3.16 | 0.2 | 1.72 | 0.72 | 1.37
#34 (antibody, V domains shown) VH: QVQLKQSGPELVKPGASVKVSCKASGYAFTKYNIYWVKQSHGKSLEWIGYIDPYNGGTVQNQKFKGKATLTVDKSSSTAYMHLNSLTSEDSAVYYCATTDGYSLFTYWGQGTLVTVSS VL: DIVLTQSPTTMAASPGEKITITCSASSSISSNYLHWYQQKPGFSPKLLIYRTSNLASGVPARFSGSGSGTSYSLTIGTMEAEDVATYYCQQGSSIPFTFGSGTKLEIK | 0.3 | 0.12 | 0.34 | 2.75 | 0.46 | 1.23 | 0.56 | 0.17
6E1.1.12 (antibody, human IgG1, kappa, V domains shown) VH: QGQMQQSGAELVKPGASVKLSCKTSGFTFSDNYISWLKQKPGQSLEWIAWIYAGTGGSSYNQKFRDKAQLTVDTSSRTAYMQLSSLTTEDSAIYYCARHDYYGTSGAWFAYWGRGTLVTVSA VL: DVLMTQTPLSLPVSLGDQASISCRSSQHIVHSNENTYLEWYLQKPGQSPKLLIYKVSNRFSGVPDRFSGSGSGTDFTLKISRVEAEDLGVYYCFQGSHVPWTFGGGTKVEIKR | 0.22 | 0.15 | 0.22 | 3.35 | 0.42 | 1.13 | 0.41 | 2.42

Results, then the binder that gave them:

EC50 [1] [µg/mL] | Max OD450 [1] | EC50 [2] [µg/mL] | Max OD450 [2] | EC50 [3] [µg/mL] | Max OD450 [3] | EC50 [4] [µg/mL] | Max OD450 [4] | Binder
0.52 | 0.03 | 0.36 | 1.01 | 0.34 | 0.11 | 0.1 | 2.86 | #39 (antibody, V domains shown) VH: QVQLQQSGAELVRPGTSVKVSCKASGYAFTDYLIEWVKQRPGQGLEWIGGINPGSGSTNYNEKFKGKAILTADKSSSTAYMQLSSLTSDDSAVYFCARLDGNYVGYWGQGTTLTVSS VL: DILLTQSPASLSASVGETVTITCRASGNIHNYLAWYQQKQGKSPQLLVYHAKTLADGVPSRFSGSGSGTQYSLKINSLQPEDFGSYYCQHFWSTPWTFGGGTKLEIK
0.2 | 0.16 | 0.04 | 3.32 | 0.09 | 2.66 | 0.02 | 2.97 | #38 (antibody, V domains shown) VH: QVQLQQSGAELARPGASVKLSCKASGYTFSIHWMQWVKQRPGQGLEWIGAIYPGNGDTKYTQKFKGKATLTADKSSSTAYMQLSNLASEDSAVYYCATLYGNYEAYWGQGTLVTVSA VL: DIVLTQSPASLSASVGETVTITCGASENIYGALNWYQRKQGKSPQLLIYGTTNLADGMSSRFSGSGSGRQYSLKISSLHPDDVATYYCQNVLTTPPWTFGGGTKLEIK
0.38 | 0.16 | 0.32 | 3 | 0.47 | 1.31 | 0.84 | 0.68 | #36 (antibody, V domains shown) VH: QVQLQQSGPELVKPGASVKVSCKASGYAFTKYNIYWVKQSHGKSLEWIGYIDPYNGGTVYNQKFKGKATLTVDKSSSTAYMHLNSLTSEDSAVYYCATTDGYSLFTYWGQGTLVTVSA VL: DIQMTQTTSSLSASLGDRVTISCRASQDISNYLNWYQQKPDGTVKLLIYYTSRLHSGVPSRFSGSGSGTDYSLTISNLEQEDIATYFCQQGNTLPFTFGSGTKLEIK
